Assay results: patent publication US20250101098A1 (R P SCHERER TECHNOLOGIES, published 2025)
Substitutions are numbered along the chain they refer to. In names and notes the source's numbering stands.

Columns and labels:
[1] = molecular target: T1, human nectin-4 protein expressed on the surface of cells (human, UniProt Q96NY8 32-510); test: cell-based or functional assay
[2] = molecular target: T1, human nectin-4 protein expressed on the …; test: flow cytometry, HEK 293 cells overexpressing the target
Protocol: (§1) Human embryonic kidney (HEK) 293 cells overexpressing human, cynomolgus monkey, rat, or mouse nectin-4 protein were produced. Cells were lifted with Versene to preserve cell surface proteins and were resuspended at 10e6/mL in PBS+2% FBS. 100 μl was added to a flow tube to test […]. Primary antibodies were diluted to […] and 10 μL was added for a total of 1 μg/test. Primary antibodies (or ADCs) were incubated with cells for 1 h on ice. Then, cells were washed 1× in 2 mL PBS+2% FBS and secondary antibody was added for detection. AF488-conjugated anti-human antibody from Jackson Immunoresearch, diluted according to the manufacturer's instructions+50% glycerol, was used at 1 μL/test-diluted to ⅕ the concentration in PBS+2% FBS and 5 μL were added per tube. The secondary reagent was incubated with the cells for 30 min, then cells were washed 2× in PBS+2% FBS and analyzed by flow cytometry on a BD FacsCanto instrument equipped with FACSDiva software.
(§2) Lead clones were tested for binding to human, cynomolgus monkey, rat, or mouse nectin-4 protein expressed on the surface of HEK 293 cells. Enfortumab was included as a positive control and an anti-FITC reactive antibody was included as a negative control.

[3] = molecular target: T2, cynomolgus monkey nectin-4 protein expressed on the surface of HEK 293 cells (cynomolgus monkey, UniProt A0A2K5WES1 32-510); test: as above
T2 construct: whole, on cells
T2 sequence: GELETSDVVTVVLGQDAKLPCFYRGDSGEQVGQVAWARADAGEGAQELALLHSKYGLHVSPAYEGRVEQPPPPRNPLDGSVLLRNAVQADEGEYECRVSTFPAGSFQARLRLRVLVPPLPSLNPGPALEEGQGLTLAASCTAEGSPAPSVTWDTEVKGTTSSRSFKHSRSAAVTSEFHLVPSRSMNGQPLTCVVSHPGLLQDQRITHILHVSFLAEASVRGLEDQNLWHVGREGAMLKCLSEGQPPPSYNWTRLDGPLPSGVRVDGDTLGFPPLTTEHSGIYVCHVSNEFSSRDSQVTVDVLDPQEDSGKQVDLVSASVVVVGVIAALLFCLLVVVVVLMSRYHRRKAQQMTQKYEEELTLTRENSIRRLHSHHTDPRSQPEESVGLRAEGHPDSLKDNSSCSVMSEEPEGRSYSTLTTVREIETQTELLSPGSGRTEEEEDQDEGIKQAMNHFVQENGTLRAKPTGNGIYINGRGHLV
Protocol: as §1, §2

[4] = molecular target: T3, rat nectin-4 protein expressed on the surface of HEK 293 cells (rat, UniProt D3ZET1 31-509); test: as above
T3 construct: whole, on cells
T3 sequence: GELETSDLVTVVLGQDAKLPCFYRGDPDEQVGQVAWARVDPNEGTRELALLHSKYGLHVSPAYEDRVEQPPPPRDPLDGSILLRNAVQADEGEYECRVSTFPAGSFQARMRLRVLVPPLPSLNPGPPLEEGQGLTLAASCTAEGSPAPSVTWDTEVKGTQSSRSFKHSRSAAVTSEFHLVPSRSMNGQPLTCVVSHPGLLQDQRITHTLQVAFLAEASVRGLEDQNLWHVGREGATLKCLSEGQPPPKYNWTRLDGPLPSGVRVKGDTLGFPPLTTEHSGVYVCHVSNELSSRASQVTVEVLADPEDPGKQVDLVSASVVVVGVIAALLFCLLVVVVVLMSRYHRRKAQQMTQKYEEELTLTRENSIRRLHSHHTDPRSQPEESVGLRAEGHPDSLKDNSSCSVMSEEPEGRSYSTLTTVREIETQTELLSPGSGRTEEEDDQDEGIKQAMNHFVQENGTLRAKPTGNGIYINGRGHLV
Protocol: as §1, §2

[5] = molecular target: T4, mouse nectin-4 protein expressed on the surface of HEK 293 cells (mouse, UniProt Q8R007 31-508); test: as above
T4 construct: whole, on cells
T4 sequence (looked up): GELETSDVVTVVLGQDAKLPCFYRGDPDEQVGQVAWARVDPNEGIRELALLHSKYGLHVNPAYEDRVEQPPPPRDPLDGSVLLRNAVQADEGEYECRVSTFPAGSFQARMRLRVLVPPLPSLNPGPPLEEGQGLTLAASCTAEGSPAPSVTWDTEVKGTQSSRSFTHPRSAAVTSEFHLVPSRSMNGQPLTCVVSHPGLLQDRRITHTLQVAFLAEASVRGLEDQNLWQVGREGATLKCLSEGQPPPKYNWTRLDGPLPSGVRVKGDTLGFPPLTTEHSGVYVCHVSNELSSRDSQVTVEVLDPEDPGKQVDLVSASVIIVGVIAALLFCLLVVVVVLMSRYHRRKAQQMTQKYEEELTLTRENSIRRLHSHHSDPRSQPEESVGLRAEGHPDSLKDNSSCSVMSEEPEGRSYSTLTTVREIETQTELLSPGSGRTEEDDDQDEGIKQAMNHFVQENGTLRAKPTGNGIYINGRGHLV
Protocol: as §1, §2

[6] = molecular target: T5, human nectin-4 protein expressed on the surface of cells (human, UniProt Q96NY8 32-510); test: cell-based or functional assay; remark: listed apart in the source
T5 sequence: T2 sequence with A39V, V230I, T437A

[7] = molecular target: T6, recombinant human Nectin-4-His protein (human, UniProt Q96NY8 32-349); test: ELISA, recombinant antibody on coated antigen
T6 construct: Rescreening antigen and bought ELISA antigen are treated as one molecule; also called human Nectin-4-His tagged; Ag1; not shown: His tag
T6 sequence: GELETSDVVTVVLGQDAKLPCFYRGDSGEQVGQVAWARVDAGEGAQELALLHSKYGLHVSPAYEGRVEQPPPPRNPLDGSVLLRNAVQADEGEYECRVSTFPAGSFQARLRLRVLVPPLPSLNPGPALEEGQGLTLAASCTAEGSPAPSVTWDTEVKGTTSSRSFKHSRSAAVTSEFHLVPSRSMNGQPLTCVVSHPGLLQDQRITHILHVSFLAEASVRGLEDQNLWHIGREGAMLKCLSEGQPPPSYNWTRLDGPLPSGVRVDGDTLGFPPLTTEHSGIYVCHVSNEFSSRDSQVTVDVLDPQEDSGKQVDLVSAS

[8] = molecular target: T5, human nectin-4 protein expressed on the …; test: flow cytometry, HEK 293 cells overexpressing the target
Protocol: as §1, §2

[9] = molecular target: T6, recombinant human Nectin-4-His protein; test: ELISA, coated antigen
[10] = molecular target: T5, human nectin-4 protein expressed on the …; test: cell-based or functional assay; remark: listed apart in the source

B1: Enfortumab (antibody, V domains shown)
VH: EVQLVESGGGLVQPGGSLRLSCAASGFTFSSYNMNWVRQAPGKGLEWVSYISSSSSTIYYADSVKGRFTISRDNAKNSLSLQMNSLRDEDTAVYYCARAYYYGMDVWGQGTTVTVSS
VL: DIQMTQSPSSVSASVGDRVTITCRASQGISGWLAWYQQKPGKAPKFLIYAASTLQSGVPSRFSGSGSGTDFTLTISSLQPEDFATYYCQQANSFPPTFGGGTKVEIKR
B1 was tested, and the “IC50, in vitro potency, HEK Cells + Nectin-4” value (“IC50, in vitro potency” below) [1] was 0.685 nM, the Flow data [2] was 17100 and the Flow data [3] was 20000. The Flow data [4] was 45500 and the Flow data [5] was 3220.

B2: Nectin-4 Hybridoma 6C8H/6C8L (recombinant chimeric antibody) (antibody, V domains shown)
VH: QVQLKQSGPGLVQPSQSLSITCTVSGFSLSTYGVHWVRQSPGKGLEWLGVIWSGGSTDYNAAFISRLTISKDNSKSQIFFKMNSLQADDTAIYYCARMMSWYFDVWGTGTTVTVSS
VL: DIVMTQSQKFMSTSVGDRVSVTCKASQNVVTNVAWYQQKPGQSPKALIYSASYRYSGVPDRFTGSGSGTDFTLTISNVQSEDLAEYFCQQYNSYPLTFGAGTKLELK
With B2 the “IC50, in vitro potency” value [6] was 0.573 nM, the EC50 [7] was 0.239 nM and the Flow data [8] was 10200. For the same binder, the Flow data [3] was 11400, the Flow data [4] was 8920 and the Flow data [5] was 194.

B3: Nectin-4 3C12H/3C12L (recombinant chimeric antibody) (antibody, V domains shown)
VH: B2 VH with S30T, S56N, T68S, I78V, M99T, S100H
VL: B2 VL with S14T, V21I, N32A, A46L, Y53N, S56T, N77Y, V78M, E85D, N92S
With B3 the “IC50, in vitro potency” value [6] was 0.919 nM, the EC50 [7] was 0.282 nM and the Flow data [8] was 8370. For the same binder, the Flow data [3] was 10600, the Flow data [4] was 5060 and the Flow data [5] was 328.

B4: Nectin-4 12E11H/12E11L (recombinant chimeric antibody) (antibody, V domains shown)
VH: B2 VH with S30T, Y59C, A61G, T68S, S70I, I78V, M99T, S100H
VL: B2 VL with S14T, V21I, V30N, N32A, A46L, S56T, V78M, E85D, N92S, S93N
notes: also called parental 12E11 clone
In the case of B4, the “IC50, in vitro potency” value [6] is reported as 0.987 nM, the EC50 [7] is reported as 0.252 nM and the Flow data [8] is reported as 8620. It also gave a Flow data [3] of 10400, a Flow data [4] of 1900 and a Flow data [5] of 230.

B5: Nectin-4 7 E8H/7 E8L (recombinant chimeric antibody) (antibody, V domains shown)
VH: B2 VH with S30A, T68S, I78V, M98N, M99S, S100H
VL: B2 VL with N77H, Q89H, S93N, L96Y, A100G, L106I
With B5 the “IC50, in vitro potency” value [6] was 0.89 nM, the EC50 [7] was 0.361 nM and the Flow data [8] was 9200. It also gave a Flow data [3] of 10400, a Flow data [4] of 5970 and a Flow data [5] of 279.

B6: Nectin-4 5D9H/5D9L (recombinant chimeric antibody) (antibody, V domains shown)
VH: QVQLKQSGPGLVQPSQSLSITCTVSGFSLTNYGVHWVRQSPGKGLEWLGVIWSGGSTDYNAAFVSRLSISRDNSKSQVFFKMNSLQADDTAIYYCARSGKWYYFDYWGQGTTLTVSS
VL: DIQMTQSPASLSVSVGETVTITCRASENIYSNLAWYQQKQGKSPQLLVYAATNLADGVPSRFSGSGSGTQYSLKINSLQSEDFGSYYCQHFWGTPTFGGGTKLEIK
notes: also called Nectin-4 5D9 chimeric mAb
For B6, the EC50 [9] was 0.191 nM, the “IC50, in vitro potency” value [6] was 0.446 nM and the “Cell kill IC50, HekNectin4” value [10] was 0.207 nM. For the same binder, the “Cell kill IC50, MDA-MB468” value [10] was 1.31 nM, the “Cell kill IC50, SKBR3” value [10] was 8.47 nM and the EC50 [7] was 0.192 nM. The Flow data [8] was 11200, the Flow data [3] was 12600 and the Flow data [4] was 2140. For the same binder, the Flow data [5] was 189.
